In patent US10788489:

Assays:
[1] = target: anti-histidine-tag polyclonal antibody (Bethyl Laboratories, Inc., USA); test: competitive immunochromatography, 10 µg/mL FBA added; concentration read from the ATG-8 standard curve
[2] = target: anti-histidine-tag polyclonal antibody (Bethyl Laboratories, Inc., USA); test: competitive immunochromatography, 30 µg/mL FBA added; concentration read from the ATG-8 standard curve
[3] = target: anti-histidine-tag polyclonal antibody (Bethyl Laboratories, Inc., USA); test: competitive immunochromatography, 1.1 µg/mL FBA added; concentration read from the ATG-8 standard curve
[4] = target: anti-histidine-tag polyclonal antibody (Bethyl Laboratories, Inc., USA); test: competitive immunochromatography, 3.3 µg/mL FBA added; concentration read from the ATG-8 standard curve
[5] = target: anti-histidine-tag polyclonal antibody (Bethyl Laboratories, Inc., USA); test: competitive immunochromatography, 0.37 µg/mL FBA added; concentration read from the ATG-8 standard curve
[6] = target: anti-histidine-tag polyclonal antibody (Bethyl Laboratories, Inc., USA); test: competitive immunochromatography, 10 µg/mL FBA added; calculated against added concentration, ATG-8 standard curve as reference
[7] = target: anti-histidine-tag polyclonal antibody (Bethyl Laboratories, Inc., USA); test: competitive immunochromatography, 30 µg/mL FBA added; calculated against added concentration, ATG-8 standard curve as reference
[8] = target: anti-histidine-tag polyclonal antibody (Bethyl Laboratories, Inc., USA); test: competitive immunochromatography, 1.1 µg/mL FBA added; calculated against added concentration, ATG-8 standard curve as reference
[9] = target: anti-histidine-tag polyclonal antibody (Bethyl Laboratories, Inc., USA); test: competitive immunochromatography, 3.3 µg/mL FBA added; calculated against added concentration, ATG-8 standard curve as reference
[10] = target: anti-histidine-tag polyclonal antibody (Bethyl Laboratories, Inc., USA); test: competitive immunochromatography, 0.37 µg/mL FBA added; calculated against added concentration, ATG-8 standard curve as reference

Calculated concentration [1]: 1.81 µg/mL
Calculated concentration [2]: 11.7 µg/mL
Calculated concentration [3]: 0.14 µg/mL
Calculated concentration [4]: 0.51 µg/mL
Calculated concentration [5]: 0.056 µg/mL
Recovery [6]: 0.18
Recovery [7]: 0.39
Recovery [8]: 0.13
Recovery [9]: 0.15
Recovery [10]: 0.15
B1: fructose bisphosphate aldolase comprising histidine-tag (Cusabio, USA) (enzyme, UniProt P04075 2-364, looked up, species assumed)
Fructose-bisphosphate aldolase A: PYQYPALTPEQKKELSDIAHRIVAPGKGILAADESTGSIAKRLQSIGTENTEENRRFYRQLLLTADDRVNPCIGGVILFHETLYQKADDGRPFPQVIKSKGGVVGIKVDKGVVPLAGTNGETTTQGLDGLSERCAQYKKDGADFAKWRCVLKIGEHTPSALAIMENANVLARYASICQQNGIVPIVEPEILPDGDHDLKRCQYVTEKVLAAVYKALSDHHIYLEGTLLKPNMVTPGHACTQKFSHEEIAMATVTALRRTVPPAVTGITFLSGGQSEEEASINLNAINKCPLLKPWALTFSYGRALQASALKAWGGKKENLKAAQEEYVKRALANSLACQGKYTPSGQAGAAASESLFVSNHAY
modifications: His-tag
